Data as given in the supplement of paper PMC9112550, “Optimization of the antimicrobial peptide Bac7 by deep mutational scanning” (BMC Biology, 2022).
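Also: peptides expressed intracellularly from a pBAD plasmid library in pooled LB shake-flask culture, induced with 0.3% L-arabinose, DNA abundance read by NGS, three biological replicates, DESeq2 with apeglm shrinkage.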

What follows are sequences tested on Escherichia coli TOP10 (assay: shrunken log2 fold change of peptide-encoding DNA abundance (4.5 h post-induction vs induction); higher = less antimicrobial activity (less host growth inhibition)). Conditions: time post-induction: 4.5 h; library: site-saturation at positions 5, 18, 19, 20.
In the case of RRIRCRPPRLPRPRPRPDSVPRP, the “shrunken log2 fold change” value is reported as -0.894. In the case of RRIRYRPPRLPRPRPRPMTCPRP, the “shrunken log2 fold change” value is reported as -0.122. For RRIRYRPPRLPRPRPRPGGMPRP, the “shrunken log2 fold change” value was -0.297. With RRIRIRPPRLPRPRPRPMQWPRP the “shrunken log2 fold change” value was -0.192. With RRIRGRPPRLPRPRPRPIRFPRP the “shrunken log2 fold change” value was 0.0151. With RRIRGRPPRLPRPRPRPHNWPRP the “shrunken log2 fold change” value was 0.18. RRIRCRPPRLPRPRPRPCAAPRP was tested, and the “shrunken log2 fold change” value was 0.514. For RRIRYRPPRLPRPRPRPPMPPRP, the “shrunken log2 fold change” value was 0.0328. For RRIRPRPPRLPRPRPRPAIDPRP, the “shrunken log2 fold change” value was 1.19. In the case of RRIRMRPPRLPRPRPRPPTCPRP, the “shrunken log2 fold change” value is reported as 0.183. In the case of RRIRDRPPRLPRPRPRPENYPRP, the “shrunken log2 fold change” value is reported as 0.0528. RRIRDRPPRLPRPRPRPCHLPRP was tested, and the “shrunken log2 fold change” value was -0.00196. RRIRHRPPRLPRPRPRPPSWPRP was tested, and the “shrunken log2 fold change” value was 0.393. For RRIRCRPPRLPRPRPRPITSPRP, the “shrunken log2 fold change” value was 0.0215. With RRIRLRPPRLPRPRPRPCMSPRP the “shrunken log2 fold change” value was 0.0623. In the case of RRIRMRPPRLPRPRPRPRSWPRP, the “shrunken log2 fold change” value is reported as 1.42. In the case of RRIRRRPPRLPRPRPRPFTLPRP, the “shrunken log2 fold change” value is reported as -0.2. For RRIRYRPPRLPRPRPRPPRWPRP, the “shrunken log2 fold change” value was 0.466. RRIRMRPPRLPRPRPRPKYFPRP was tested, and the “shrunken log2 fold change” value was -0.186. In the case of RRIRCRPPRLPRPRPRPQWCPRP, the “shrunken log2 fold change” value is reported as -0.158. RRIRFRPPRLPRPRPRPHLKPRP was tested, and the “shrunken log2 fold change” value was -0.437. In the case of RRIRLRPPRLPRPRPRPLYIPRP, the “shrunken log2 fold change” value is reported as -0.932. For RRIRMRPPRLPRPRPRPCRYPRP, the “shrunken log2 fold change” value was 0.11. For RRIRKRPPRLPRPRPRPMWFPRP, the “shrunken log2 fold change” value was 0.0615. RRIRERPPRLPRPRPRPIDAPRP was tested, and the “shrunken log2 fold change” value was 0.0409. In the case of RRIRARPPRLPRPRPRPWTVPRP, the “shrunken log2 fold change” value is reported as -0.0846. In the case of RRIRHRPPRLPRPRPRPPWTPRP, the “shrunken log2 fold change” value is reported as -0.131. With RRIRIRPPRLPRPRPRPYCMPRP the “shrunken log2 fold change” value was -1.34. In the case of RRIRPRPPRLPRPRPRPEQMPRP, the “shrunken log2 fold change” value is reported as 0.0974. In the case of RRIRVRPPRLPRPRPRPPGWPRP, the “shrunken log2 fold change” value is reported as 0.718. With RRIRDRPPRLPRPRPRPGCCPRP the “shrunken log2 fold change” value was 0.617. RRIRQRPPRLPRPRPRPIGYPRP was tested, and the “shrunken log2 fold change” value was -0.0242. In the case of RRIRARPPRLPRPRPRPPGCPRP, the “shrunken log2 fold change” value is reported as 0.746. For RRIRDRPPRLPRPRPRPTQEPRP, the “shrunken log2 fold change” value was 0.604. RRIRERPPRLPRPRPRPVCIPRP was tested, and the “shrunken log2 fold change” value was -0.541. In the case of RRIRLRPPRLPRPRPRPMGIPRP, the “shrunken log2 fold change” value is reported as 0.0924. For RRIRYRPPRLPRPRPRPFPAPRP, the “shrunken log2 fold change” value was -0.467. With RRIRWRPPRLPRPRPRPGIFPRP the “shrunken log2 fold change” value was 0.0995. In the case of RRIRMRPPRLPRPRPRPQVIPRP, the “shrunken log2 fold change” value is reported as -0.0579. With RRIRNRPPRLPRPRPRPLPKPRP the “shrunken log2 fold change” value was 0.402. For RRIRPRPPRLPRPRPRPNETPRP, the “shrunken log2 fold change” value was 0.0335. RRIRYRPPRLPRPRPRPHWCPRP was tested, and the “shrunken log2 fold change” value was -0.0867. In the case of RRIRLRPPRLPRPRPRPPPSPRP, the “shrunken log2 fold change” value is reported as 1.28. With RRIRNRPPRLPRPRPRPDVSPRP the “shrunken log2 fold change” value was -0.0754. For RRIRWRPPRLPRPRPRPSDYPRP, the “shrunken log2 fold change” value was 0.0192. With RRIRDRPPRLPRPRPRPETQPRP the “shrunken log2 fold change” value was 0.476. For RRIRWRPPRLPRPRPRPTPCPRP, the “shrunken log2 fold change” value was 0.212. RRIRLRPPRLPRPRPRPHFYPRP was tested, and the “shrunken log2 fold change” value was -0.303. For RRIRNRPPRLPRPRPRPMTWPRP, the “shrunken log2 fold change” value was 0.0964. RRIRPRPPRLPRPRPRPCGYPRP was tested, and the “shrunken log2 fold change” value was -0.136. With RRIRQRPPRLPRPRPRPIYVPRP the “shrunken log2 fold change” value was 0.0693. In the case of RRIRKRPPRLPRPRPRPLLFPRP, the “shrunken log2 fold change” value is reported as 0.176. For RRIRSRPPRLPRPRPRPGIEPRP, the “shrunken log2 fold change” value was 0.158. In the case of RRIRQRPPRLPRPRPRPSQHPRP, the “shrunken log2 fold change” value is reported as -0.356. For RRIRTRPPRLPRPRPRPKGDPRP, the “shrunken log2 fold change” value was 0.00199. In the case of RRIRDRPPRLPRPRPRPAQMPRP, the “shrunken log2 fold change” value is reported as 1.2. In the case of RRIRKRPPRLPRPRPRPFSSPRP, the “shrunken log2 fold change” value is reported as -0.219. In the case of RRIRQRPPRLPRPRPRPFPRPRP, the “shrunken log2 fold change” value is reported as -0.122. RRIRLRPPRLPRPRPRPRDFPRP was tested, and the “shrunken log2 fold change” value was -0.206. RRIRHRPPRLPRPRPRPTDTPRP was tested, and the “shrunken log2 fold change” value was -0.116. RRIRGRPPRLPRPRPRPGDPPRP was tested, and the “shrunken log2 fold change” value was 0.779. With RRIRFRPPRLPRPRPRPWEQPRP the “shrunken log2 fold change” value was -0.00193. For RRIRPRPPRLPRPRPRPWDPPRP, the “shrunken log2 fold change” value was -0.0945. RRIRLRPPRLPRPRPRPWFHPRP was tested, and the “shrunken log2 fold change” value was -0.352. With RRIRARPPRLPRPRPRPDAPPRP the “shrunken log2 fold change” value was 0.942. RRIRSRPPRLPRPRPRPVCPPRP was tested, and the “shrunken log2 fold change” value was 0.0554. With RRIRVRPPRLPRPRPRPVMKPRP the “shrunken log2 fold change” value was -0.127. In the case of RRIRGRPPRLPRPRPRPAWWPRP, the “shrunken log2 fold change” value is reported as 1.39. In the case of RRIRVRPPRLPRPRPRPPSKPRP, the “shrunken log2 fold change” value is reported as 1.13. RRIRFRPPRLPRPRPRPKPHPRP was tested, and the “shrunken log2 fold change” value was 1.81. RRIRQRPPRLPRPRPRPESVPRP was tested, and the “shrunken log2 fold change” value was 0.00473. In the case of RRIRFRPPRLPRPRPRPFPPPRP, the “shrunken log2 fold change” value is reported as -0.123. For RRIRTRPPRLPRPRPRPHFRPRP, the “shrunken log2 fold change” value was -0.284. In the case of RRIRWRPPRLPRPRPRPAQCPRP, the “shrunken log2 fold change” value is reported as -0.00191. With RRIRARPPRLPRPRPRPTIWPRP the “shrunken log2 fold change” value was 0.206. For RRIRDRPPRLPRPRPRPTQGPRP, the “shrunken log2 fold change” value was 0.797. With RRIRLRPPRLPRPRPRPRPNPRP the “shrunken log2 fold change” value was 0.348. In the case of RRIRARPPRLPRPRPRPARRPRP, the “shrunken log2 fold change” value is reported as 0.388. RRIRQRPPRLPRPRPRPSGKPRP was tested, and the “shrunken log2 fold change” value was -0.147. RRIRCRPPRLPRPRPRPECDPRP was tested, and the “shrunken log2 fold change” value was 0.346. With RRIRSRPPRLPRPRPRPCSIPRP the “shrunken log2 fold change” value was -0.153. In the case of RRIRTRPPRLPRPRPRPYYVPRP, the “shrunken log2 fold change” value is reported as -1.13. In the case of RRIRWRPPRLPRPRPRPWRGPRP, the “shrunken log2 fold change” value is reported as 0.389. In the case of RRIRTRPPRLPRPRPRPTHEPRP, the “shrunken log2 fold change” value is reported as 0.746. For RRIRNRPPRLPRPRPRPWWPPRP, the “shrunken log2 fold change” value was -0.218. RRIRIRPPRLPRPRPRPLNWPRP was tested, and the “shrunken log2 fold change” value was -0.291. With RRIRTRPPRLPRPRPRPPHMPRP the “shrunken log2 fold change” value was -0.101. RRIRDRPPRLPRPRPRPHVNPRP was tested, and the “shrunken log2 fold change” value was 0.000411. For RRIRTRPPRLPRPRPRPQMAPRP, the “shrunken log2 fold change” value was -0.177. For RRIRWRPPRLPRPRPRPRIWPRP, the “shrunken log2 fold change” value was -0.0288. RRIRCRPPRLPRPRPRPTYEPRP was tested, and the “shrunken log2 fold change” value was -0.717. With RRIRQRPPRLPRPRPRPSMQPRP the “shrunken log2 fold change” value was -0.0429. In the case of RRIRIRPPRLPRPRPRPWGQPRP, the “shrunken log2 fold change” value is reported as -0.00987. For RRIRCRPPRLPRPRPRPKEYPRP, the “shrunken log2 fold change” value was -0.207. In the case of RRIRVRPPRLPRPRPRPMKSPRP, the “shrunken log2 fold change” value is reported as 3.02. For RRIRVRPPRLPRPRPRPPNTPRP, the “shrunken log2 fold change” value was -0.0576. In the case of RRIRTRPPRLPRPRPRPYHNPRP, the “shrunken log2 fold change” value is reported as -0.941. With RRIRERPPRLPRPRPRPSRQPRP the “shrunken log2 fold change” value was -0.214. RRIRNRPPRLPRPRPRPQWGPRP was tested, and the “shrunken log2 fold change” value was -0.0138. With RRIRMRPPRLPRPRPRPTWMPRP the “shrunken log2 fold change” value was 0.25. RRIRKRPPRLPRPRPRPFTVPRP was tested, and the “shrunken log2 fold change” value was -0.00947. For RRIRCRPPRLPRPRPRPYVWPRP, the “shrunken log2 fold change” value was -0.369. RRIRKRPPRLPRPRPRPPVGPRP was tested, and the “shrunken log2 fold change” value was 1.04. For RRIRFRPPRLPRPRPRPNVGPRP, the “shrunken log2 fold change” value was -0.0278. In the case of RRIRWRPPRLPRPRPRPHGAPRP, the “shrunken log2 fold change” value is reported as 0.0287. In the case of RRIRMRPPRLPRPRPRPMFPPRP, the “shrunken log2 fold change” value is reported as 0.164. In the case of RRIRPRPPRLPRPRPRPDDQPRP, the “shrunken log2 fold change” value is reported as 0.0917. With RRIRGRPPRLPRPRPRPRDGPRP the “shrunken log2 fold change” value was 1.27. For RRIRKRPPRLPRPRPRPKWAPRP, the “shrunken log2 fold change” value was 0.0446. With RRIRNRPPRLPRPRPRPASTPRP the “shrunken log2 fold change” value was -0.269. RRIRHRPPRLPRPRPRPGQVPRP was tested, and the “shrunken log2 fold change” value was -0.00149. For RRIRFRPPRLPRPRPRPSDQPRP, the “shrunken log2 fold change” value was -0.302. For RRIRYRPPRLPRPRPRPGYCPRP, the “shrunken log2 fold change” value was -0.235. In the case of RRIRTRPPRLPRPRPRPPIHPRP, the “shrunken log2 fold change” value is reported as -0.323. RRIRKRPPRLPRPRPRPNVRPRP was tested, and the “shrunken log2 fold change” value was -0.0184. For RRIRWRPPRLPRPRPRPSCRPRP, the “shrunken log2 fold change” value was 0.0511. For RRIRFRPPRLPRPRPRPPVFPRP, the “shrunken log2 fold change” value was 0.138. With RRIRVRPPRLPRPRPRPKEKPRP the “shrunken log2 fold change” value was -0.0337. For RRIRKRPPRLPRPRPRPQLTPRP, the “shrunken log2 fold change” value was 0.14. For RRIRMRPPRLPRPRPRPACLPRP, the “shrunken log2 fold change” value was 0.236. In the case of RRIRRRPPRLPRPRPRPYWYPRP, the “shrunken log2 fold change” value is reported as -0.423. For RRIRLRPPRLPRPRPRPQDNPRP, the “shrunken log2 fold change” value was -0.428. With RRIRDRPPRLPRPRPRPCMGPRP the “shrunken log2 fold change” value was -0.0733. With RRIRHRPPRLPRPRPRPFASPRP the “shrunken log2 fold change” value was -0.182. For RRIRSRPPRLPRPRPRPRDMPRP, the “shrunken log2 fold change” value was 0.446.
